Reference: patent US20110064746A1 (published 2011)

T1: recombinant HMGB-1 (Homo sapiens (Human), UniProt P09429 1-215)
T1 construct: also called recombinant HMGB1 protein; recombinant HMGB-1 obtained from R&D system
T1 sequence: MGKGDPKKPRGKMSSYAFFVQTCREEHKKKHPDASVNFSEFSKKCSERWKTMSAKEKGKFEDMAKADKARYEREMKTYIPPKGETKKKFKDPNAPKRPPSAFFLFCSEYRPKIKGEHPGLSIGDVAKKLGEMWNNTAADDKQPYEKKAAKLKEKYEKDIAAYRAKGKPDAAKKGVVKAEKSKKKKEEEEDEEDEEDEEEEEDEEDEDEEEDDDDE


Target: T1, recombinant HMGB-1
Test: SPR, BIACORE3000

Row | Kd [nM] | Binder
1 | 7.8 | anti-HMGB-1 mAb 3B1 (antibody, V domains shown) VH: QVQLQQPGAELVKPGASVKLSCKASGYTFTSYWMHWVKQRPGQGLEWIGNIDPSDSETHYNQKFKDKATLTVDKSSSTAYMQLNSLTSEDSAVYYCAKRGYYGYDYWGQGTTLTV VL: DVLMTQTPLSLPVSLGDQASISCRSSQSIVHSNGNTYLEWYLQKAGQSPKLLIYKVSNRFSGVPDRFSGSGSGTDFTLKISRVEAEDLGVYYCFQGAHVPRTFGGGTKLEIK
2 | 1.3 | anti-HMGB-1 mAb 3E8 (antibody, V domains shown) VH: QVQLQQSGPELVKPGASVKISCKASGYAFSNYWMNWVKQRPGKGLEWIGRIYPGDGDMAYNGKFRGKATLTADKSSSTAYMQLSSLTSEDSAVYFCARSLDGYVGYVMDYWGQGTSVTVSS VL: DIVMTQAAPSVPVTPGESVSISCRSSKSLLHRNGNIFLYWFLQRPGQSPQLLIYRMSNLASGVPDRFSGSGSGTAFTLRISRVETEDVGVYYCMQHLEYPFTFGSGTKLEIK
